Results reported in PMC5676751.

Biological target: HER2 on HER2-expressing SKOV3 and BT474 cells (human (endogenous in SKOV3 and BT474)) (UniProt P04626)
Assay: radioligand binding; LigandTracer Yellow, living SKOV3 cells (10^6) on a segment of a dish; radiolabeled ADAPT at 0.333 and 1 nM; association and dissociation recorded, duplicates; InteractionMap software, two types of interaction

Row | Substance | KD1 (first of two types of interaction) [pM] | KD2 (second of two types of interaction) [nM]
1 | ^99mTc-DEAVDANS-ADAPT6-GSSC (designed binder) | 174 | –
2 | ^111In-DEAVDANS-ADAPT6-GSSC-DOTA (designed binder) | 32.3 | 1.31
